One substance from publication PMC2753473 can be followed below.

Assay [1] addresses photoactivated rhodopsin (Rho*, Meta II) (bovine) (UniProt P02699). The experiment in a line: SEC. (In general: Size exclusion chromatography separates by hydrodynamic size, large species first.)
For assay [2] the target is unchanged. The experiment in a line: SEC. The source holds these as a separate data set.

Where two headings read alike, the source gives them in different places.

Sequence of photoactivated rhodopsin (Rho*, Meta II) (bovine) (P02699 whole entry): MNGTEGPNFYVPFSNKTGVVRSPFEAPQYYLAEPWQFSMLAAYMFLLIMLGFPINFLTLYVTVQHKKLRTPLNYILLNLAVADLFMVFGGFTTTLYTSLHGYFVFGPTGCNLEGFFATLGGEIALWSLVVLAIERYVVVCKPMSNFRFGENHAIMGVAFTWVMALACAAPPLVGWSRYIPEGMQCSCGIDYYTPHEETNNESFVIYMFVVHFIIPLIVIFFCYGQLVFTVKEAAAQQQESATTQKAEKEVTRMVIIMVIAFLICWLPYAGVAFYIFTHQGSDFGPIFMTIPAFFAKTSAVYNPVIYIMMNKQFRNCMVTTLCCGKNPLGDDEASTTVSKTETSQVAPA

“transducin (Gt), rod cell-specific heterotrimeric G protein (from UniProt P04695 1-350; P62871 1-340; P02698 1-74) (complex)”: the stoichiometry N (Rho*:Gt molar ratio) in assay [1] and in assay [2] was 1 in each case.
